The assay has as its target [Lys]plasminogen (human). The experiment in a line: kinetics of conformational plasminogen activation.

For the substance “streptokinase ALAB49 SK2b variant with Tyr4 substituted by Pro (natural protein)”, the Kd (as a rule, the constant that tells how readily two partners part at equilibrium) was 600 nM.

These data come from article PMC4498406.
